{
  "source": "patent US10251952B2",
  "about": "“Humanized anti-tau(pS422) antibody brain shuttles and use thereof” (Hoffmann-La Roche Inc., priority 2014, dated 2019)",
  "note": "Where “and” joins values, the source holds several entries; their conditions need not be identical. Equal entries are not always repeated.",
  "data": [
    {"molecular_target": "human tau(pS422) (Homo sapiens, UniProt P10636, S739X)", "assay": "BIAcore kinetic screening and kinetic rates of humanized VH/VL combinations", "assay_type": "binding", "settings": "25 °C; VH14 or VH20 with VL variants", "method": "(§1) In the following Table characteristics of the different humanized variants of the rabbit light chain variable domain in combination with the humanized heavy chain variable domains VH14 and VH20, respectively, are shown. Binding partner was human tau(pS422).\n(§2) Kinetic screening was performed according to Schraeml et al. (Schraeml, M. and M. Biehl, Methods Mol. Biol. 901 (2012) 171-181) on a BIAcore 4000 instrument, mounted with a BIAcore CM5 sensor. The BIAcore 4000 instrument was under the control of the software version V1.1. A BIAcore CM5 series S chip was mounted into the instrument and was hydrodynamically addressed and preconditioned according to the manufacturer's instructions. The instrument buffer was HBS-EP buffer (10 mM HEPES (pH 7.4), 150 mM NaCl, 1 mM EDTA, 0.05% (w/v) P20). An antibody capture system was prepared on the sensor surface. A polyclonal goat anti-human antibody with human IgG-Fc specificity (Jackson Lab.) was immobilized at 30 μg/ml in 10 mM sodium acetate buffer (pH 5) to spots 1, 2, 4 and 5 in the instrument's flow cells 1, 2, 3 and 4 at 10,000 RU using NHS/EDC chemistry. In each flow cell the antibodies were captured on spot 1 and spot 5. Spot 2 and spot 4 were used as reference spots. The sensor was deactivated with a 1 M ethanolamine solution. Humanized antibody derivatives were applied at concentrations between 44 nM and 70 nM in instrument buffer supplemented with 1 mg/ml CMD (carboxymethyldextrane). The antibodies were injected at a flow rate of 30 μl/min for 2 minutes. The capture level (CL) of the surface-presented antibodies was measured in rel. response units (RU). The analytes in solution, phosphorylated human tau protein, non-phosphorylated human tau protein and the phosphorylated human tau mutant protein T422S were injected at 300 nM for 3 minutes at a flow rate of 30 μl/minute. The dissociation was monitored for 5 minutes. The capture system was regenerated by a 1 minute injection of 10 mM glycine buffer, pH 1.7 at 30 μL/minute over all flow cells. Two report points, the recorded signal shortly before the end of the analyte injection, denoted as binding late (BL) and the recorded signal shortly before the end of the dissociation time, stability late (SL), were used to characterize the kinetic screening performance. Furthermore, the dissociation rate constant kd (1/s) was calculated according to a Langmuir model and the antibody/antigen complex half-life was calculated in minutes according to the formula ln(2)/(60*kd). The molar ratio (MR) was calculated according to the formula MR=(Binding Late (RU))/(Capture level (RU))*(MW(antibody)/(MW(antigen)). In case the sensor was configured with a suitable amount of antibody ligand capture level, each antibody should be able to functionally bind at least to one analyte in solution, which is represented by a molar ratio of MR=1.0. Then, the molar ratio is also an indicator for the valence mode of analyte binding. The maximum valence can be MR=2 for an antibody binding two analytes, one with each Fab valence.\n(§3) In another embodiment, kinetic rates were determined at 25° C. and 37° C. using the same experimental setup, but using multiple concentration series of each analyte in solution at 0 nM (buffer), 1.2 nM, 3.7 nM, 11.1 nM, 33.3 nM, 100 nM and 300 nM. From the concentration-dependent binding behavior the kinetic data was calculated using the BIAcore evaluation software according to the manufacturer's instructions and a Langmuir 1.1 model with RMAX global.", "values": [
      {"molecule": "VH14 with VL17: anti-human tau(pS422) antibody; VH SEQ ID NO: 50, VL SEQ ID NO: 37 (antibody, V domains shown, humanized sequence) VH: QQLVESGGGLVQPGGSLRLSCAASGFSLSSNAINWVRQAPGKGLEWVGYIAVSGNTYYASWAKGRFTISRDNSKNTLYLQMNSLRAEDTAVYYCGKSNIWGPGTLVTVSS VL: DIQMTQSPSSLSASVGDRVTITCRSSQSVRTNKLAWFQQKPGQPPKRLIYSASTLDFGVPSRFSGSGSGTEFTLTISSLQPEDFATYYCLGYFDCSIADCVAFGGGTKVEIK", "kd": "0.00303 s⁻¹ and 0.00239 s⁻¹", "t/2 diss": "4 min and 5 min"},
      {"molecule": "VH14 with VL19: anti-human tau(pS422) antibody; VH SEQ ID NO: 50, VL SEQ ID NO: 38 (antibody, V domains shown, humanized sequence) VH: QQLVESGGGLVQPGGSLRLSCAASGFSLSSNAINWVRQAPGKGLEWVGYIAVSGNTYYASWAKGRFTISRDNSKNTLYLQMNSLRAEDTAVYYCGKSNIWGPGTLVTVSS VL: AQVMTQSPSSLSASVGDRVTITCRSSQSVRTNKLAWFQQKPGQPPKRLIYSASTLDFGVPSRFSGSGSGTEFTLTISSLQPEDFATYYCLGYFDCSIADCVAFGGGTKVEIK", "kd": "0.00198 s⁻¹", "t/2 diss": "6 min"},
      {"molecule": "VH14 with VL21: anti-human tau(pS422) antibody; VH SEQ ID NO: 50, VL SEQ ID NO: 16 (antibody, V domains shown, humanized sequence) VH: QQLVESGGGLVQPGGSLRLSCAASGFSLSSNAINWVRQAPGKGLEWVGYIAVSGNTYYASWAKGRFTISRDNSKNTLYLQMNSLRAEDTAVYYCGKSNIWGPGTLVTVSS VL: AQVMTQSPSSLSASVGDRVTITCRSSQSVRTNKLAWFQQKPGQPPKRLIYSASTLDFGVPSRFSGSGSGTEFTLTISSLQPEDFATYYCLGYFDSSADIVAFGGGTKVEIK", "kd": "0.00293 s⁻¹", "t/2 diss": "4 min"},
      {"molecule": "VH14 with VL22: anti-human tau(pS422) antibody; VH SEQ ID NO: 50, VL SEQ ID NO: 17 (antibody, V domains shown, humanized sequence) VH: QQLVESGGGLVQPGGSLRLSCAASGFSLSSNAINWVRQAPGKGLEWVGYIAVSGNTYYASWAKGRFTISRDNSKNTLYLQMNSLRAEDTAVYYCGKSNIWGPGTLVTVSS VL: AQVMTQSPSSLSASVGDRVTITCRSSQSVRTNRLAWFQQKPGQPPKRLIYSASTLDYGVPSRFSGSGSGTEFTLTISSLQPEDFATYYCLGYFDSSADIVAFGGGTKVEIK", "kd": "0.0033 s⁻¹", "t/2 diss": "4 min"},
      {"molecule": "VH14 with VL28: anti-human tau(pS422) antibody; VH SEQ ID NO: 50, VL SEQ ID NO: 39 (antibody, V domains shown, humanized sequence) VH: QQLVESGGGLVQPGGSLRLSCAASGFSLSSNAINWVRQAPGKGLEWVGYIAVSGNTYYASWAKGRFTISRDNSKNTLYLQMNSLRAEDTAVYYCGKSNIWGPGTLVTVSS VL: AIQMTQSPSTLSASVGDRVTITCRSSQSVRTNRLAWFQQKPGKAPKRLIYSASTLDFGVPSRFSGSGSGTEFTLTISSLQPDDFATYYCLGYFDPSADPVAFGGGTKVEIK", "kd": "0.00384 s⁻¹", "t/2 diss": "3 min"},
      {"molecule": "VH14 with VL33: anti-human tau(pS422) antibody; VH SEQ ID NO: 50, VL SEQ ID NO: 40 (antibody, V domains shown, humanized sequence) VH: QQLVESGGGLVQPGGSLRLSCAASGFSLSSNAINWVRQAPGKGLEWVGYIAVSGNTYYASWAKGRFTISRDNSKNTLYLQMNSLRAEDTAVYYCGKSNIWGPGTLVTVSS VL: AIQMTQSPSSLSASVGDRVTITCRSSQSVRTNRLAWFQQKPGQPPKRLIYSASTLDFGVPSRFSGSGSGTEFTLTISSLQPEDFATYYCLGYFDSSIADIVAFGGGTKVEIK", "kd": "0.0102 s⁻¹", "t/2 diss": "1 min"},
      {"molecule": "VH14 with VL35: anti-human tau(pS422) antibody; VH SEQ ID NO: 50, VL SEQ ID NO: 41 (antibody, V domains shown, humanized sequence) VH: QQLVESGGGLVQPGGSLRLSCAASGFSLSSNAINWVRQAPGKGLEWVGYIAVSGNTYYASWAKGRFTISRDNSKNTLYLQMNSLRAEDTAVYYCGKSNIWGPGTLVTVSS VL: AIQMTQSTSSLSASVGDRVTITCRSSQSVRTNRLAWFQQKPGQPPKRLIYSASTLDFGVPSRFSGSGSGTEFTLTISSLQPEDFATYYCLGYFDSSIADIVAFGGGTKVEIK", "kd": "0.011 s⁻¹", "t/2 diss": "1 min"},
      {"molecule": "VH14 with VL39: anti-human tau(pS422) antibody; VH SEQ ID NO: 50, VL SEQ ID NO: 42 (antibody, V domains shown, humanized sequence) VH: QQLVESGGGLVQPGGSLRLSCAASGFSLSSNAINWVRQAPGKGLEWVGYIAVSGNTYYASWAKGRFTISRDNSKNTLYLQMNSLRAEDTAVYYCGKSNIWGPGTLVTVSS VL: DIQMTQSPSSLSASVGDRVTITCRSSQSVRTNRLAWFQQKPGQPPKRLIYSASTLDFGVPSRFSGSGSGTEFTLTISSLQPEDFATYYCLGYFDPSIADPVAFGGGTKVEIK", "kd": "0.00522 s⁻¹", "t/2 diss": "2 min"},
      {"molecule": "VH14 with VL40: anti-human tau(pS422) antibody; VH SEQ ID NO: 50, VL SEQ ID NO: 43 (antibody, V domains shown, humanized sequence) VH: QQLVESGGGLVQPGGSLRLSCAASGFSLSSNAINWVRQAPGKGLEWVGYIAVSGNTYYASWAKGRFTISRDNSKNTLYLQMNSLRAEDTAVYYCGKSNIWGPGTLVTVSS VL: DIQMTQSPSSLSASVGDRVTITCRSSQSVRTNRLAWFQQKPGQPPKRLIYSASTLDFGVPSRFSGSGSGTEFTLTISSLQPEDFATYYCLGYFDPSADPVAFGGGTKVEIK", "kd": "0.00301 s⁻¹", "t/2 diss": "4 min"},
      {"molecule": "VH14 with VL00: anti-human tau(pS422) antibody; VH SEQ ID NO: 50, VL SEQ ID NO: 07 (antibody, listed as Oryctolagus cuniculus, V domains shown, humanized sequence) VH: QQLVESGGGLVQPGGSLRLSCAASGFSLSSNAINWVRQAPGKGLEWVGYIAVSGNTYYASWAKGRFTISRDNSKNTLYLQMNSLRAEDTAVYYCGKSNIWGPGTLVTVSS VL: AQVLTQTTSPVSAAVGSTVTISCQSSQSVRTNKLAWFQQKPGQPPKRLIYSASTLDFGVPSRFSASGSGTQFTLTISDVQCDDAATYYCLGYFDCSIADCVAFGGGTEVVVK", "kd": "0.00104 s⁻¹", "t/2 diss": "11 min"},
      {"molecule": "VH14 with VL01: anti-human tau(pS422) antibody; VH SEQ ID NO: 50, VL SEQ ID NO: 32 (antibody, V domains shown, humanized sequence) VH: QQLVESGGGLVQPGGSLRLSCAASGFSLSSNAINWVRQAPGKGLEWVGYIAVSGNTYYASWAKGRFTISRDNSKNTLYLQMNSLRAEDTAVYYCGKSNIWGPGTLVTVSS VL: DIQMTQSTSTLSASVGDRVTITCQSSQSVRTNKLAWFQQKPGKAPKRLIYSASTLDFGVPSRFSGSGSGTEFTLTISSLQPDDFATYYCLGYFDCSIADCVAFGGGTKVEIK", "kd": "0.00382 s⁻¹", "t/2 diss": "3 min"},
      {"molecule": "VH14 with VL09: anti-human tau(pS422) antibody; VH SEQ ID NO: 50, VL SEQ ID NO: 33 (antibody, V domains shown, humanized sequence) VH: QQLVESGGGLVQPGGSLRLSCAASGFSLSSNAINWVRQAPGKGLEWVGYIAVSGNTYYASWAKGRFTISRDNSKNTLYLQMNSLRAEDTAVYYCGKSNIWGPGTLVTVSS VL: DIQMTQSPSTLSASVGDRVTITCRASQSVRTNKLAWYQQKPGKAPKRLIYSASTLESGVPSRFSGSGSGTEFTLTISSLQPDDFATYYCLGYFDCSIADCVAFGGGTKVEIK", "kd [1/s]": "2.35E−03. 1/s", "t/2 diss": "5 min"}
    ]},
    {"molecular_target": "human tau(pS422) (Homo sapiens, UniProt P10636, S739X)", "assay": "BIAcore kinetic screening and kinetic rates of humanized VH/VL combinations", "assay_type": "binding", "settings": "25 °C; VL17 or VL19 with VH variants", "method": "as §1, §2, §3", "units": {"kd": "s⁻¹", "t/2 diss": "min"}, "values": [
      {"molecule": "VH14 with VL17: anti-human tau(pS422) antibody; VH SEQ ID NO: 50, VL SEQ ID NO: 37 (antibody, V domains shown, humanized sequence) VH: QQLVESGGGLVQPGGSLRLSCAASGFSLSSNAINWVRQAPGKGLEWVGYIAVSGNTYYASWAKGRFTISRDNSKNTLYLQMNSLRAEDTAVYYCGKSNIWGPGTLVTVSS VL: DIQMTQSPSSLSASVGDRVTITCRSSQSVRTNKLAWFQQKPGQPPKRLIYSASTLDFGVPSRFSGSGSGTEFTLTISSLQPEDFATYYCLGYFDCSIADCVAFGGGTKVEIK", "kd": 0.003, "t/2 diss": 4},
      {"molecule": "VH14 with VL19: anti-human tau(pS422) antibody; VH SEQ ID NO: 50, VL SEQ ID NO: 38 (antibody, V domains shown, humanized sequence) VH: QQLVESGGGLVQPGGSLRLSCAASGFSLSSNAINWVRQAPGKGLEWVGYIAVSGNTYYASWAKGRFTISRDNSKNTLYLQMNSLRAEDTAVYYCGKSNIWGPGTLVTVSS VL: AQVMTQSPSSLSASVGDRVTITCRSSQSVRTNKLAWFQQKPGQPPKRLIYSASTLDFGVPSRFSGSGSGTEFTLTISSLQPEDFATYYCLGYFDCSIADCVAFGGGTKVEIK", "kd": 0.002, "t/2 diss": 6}
    ]}
  ]
}
